Substitutions are numbered along the chain they refer to. In names and notes the source's numbering stands.
Assays:
[1] = Sensitivity of parental chimera versus wild type α7-nAChR, AZD-0328
Description: (§1) To generate LGICs that conduct anion current following exposure to non-native small molecule agonists of the human α7-nAChR, chimeric ligand gated ion channel (LGIC) receptors comprising the ligand binding domain derived from the human α7 nicotinic acetylcholine receptor (α7-nAChR) and the chloride-conducting ion pore domain derived from the human GlyR1α were genetically engineered.

[2] = Sensitivity of parental chimera versus wild type α7-nAChR, TC-6987
Description: as §1

[3] = Sensitivity of parental chimera versus wild type α7-nAChR, ABT-126
Description: as §1

[4] = Sensitivity of parental chimera versus wild type α7-nAChR, Facinicline/RG3487
Description: as §1

[5] = Sensitivity of parental chimera versus wild type α7-nAChR, nicotine
Description: as §1

[6] = Sensitivity of parental chimera versus wild type α7-nAChR, acetylcholine
Description: as §1

[7] = YFP quench plate reader assay, response to ABT-126; assay type: cell-based; settings: LX293T YFP reporter cells
Description: (§2) FIGS. 1A-FIG. 1G show the heat maps of the percent quench of YFP fluorescence in the mutants of the engineered chimeric receptor SEQ ID NO:33 that comprise the indicated double amino acid substitutions following stimulation by various doses of either acetylcholine or the indicated non-native ligand. Ligand doses are written across the top of each chart. Numbers in the boxes indicate the absolute amount of quench observed. Dark blue=80% maximal quench of YFP reporter. Light blue=quench of 30-80%. White=10-30%. Orange=0-10% quench. Negative values represent non-responders that have a negative quench due to a stimulation artifact. SEQ ID NO:29 is a non-responding chimera used as a negative control. Abbreviations for non-native ligand names: abt: ABT-126; ach: acetylcholine; apn: APN-1125; azd: AZD-0328; brd: TC-5619; fac: RG3487; tc6: TC-6987.
(§3) Tables 2-8 below lists percent quench of YFP fluorescence following stimulation of the indicated engineered receptor by various doses of either acetylcholine or the non-native ligand.
(§4) To screen these mutant LGICs for those having novel response profiles to ligands, an anion reporter assay was developed to assess the function of channels in a high throughput format. In this assay, cells expressing a YFP reporter whose fluorescence is quenched in the presence of anion are transfected with DNA encoding the channel of interest. Upon exposure to ligand, channels that are activated will flux anion, resulting in a dose-dependent quench of the YFP that can be detected on a plate reader.
(§5) Lenti-X 293T cells (LX293T, Clontech) were maintained in DMEM containing 10% FBS and 1% penicillin/streptomycin (Invitrogen). […] Two days before assay, cells were split at a density of 20,000 cells/well in a 96-well tissue culture plate coated with poly-d lysine (Thermo Scientific). The next day, the cells were transiently transfected with 0.1 μg of DNA per well using standard Fugene protocol (Promega). On the day of assay, cells were washed 2 times in 1× extracellular solution (1×ECS: 140 mM NaCl, 5 mM KCl, 1 mM MgCl2, 2 mM CaCl2, 10 mM HEPES, 10 mM glucose, pH 7.2, mOsms 300). After the last wash, 100 μL of 1×ECS was added to the wells and the plate was incubated at 37° C. for 30 min. While incubating the plate, the drugs were diluted to a 2× concentration in 1×ECS-NaI (same components as 1×ECS except the 140 mM NaCl was replaced by 140 mM NaI). The plates were then read on a Flexstation3 (Molecular Devices). Each well, 8 wells at a time, of the plate is read for 2 min using a Flexstation3 (Molecular Devices) as follows: 1) a baseline YFP fluorescence is read for 17 sec, 2) 100 μL of ligand is added, and 3) the changes in YFP fluorescence are then measured every 1.3 sec for the remaining time.
(§6) FIG. 1 provides heat maps of the percent quench of YFP fluorescence following stimulation by various doses of either acetylcholine or the non-native ligand as indicated in the Figure. A positive fluorescence signal, as indicated by blue shaded cells, indicate that the engineered receptor is activated by the non-native ligand at that concentration. […] Table 12 lists the EC50 values for the indicated double mutants to acetylcholine (Ach) and TC-5619 as determined from the YFP fluorescence plate reader experiment.

[8] = YFP quench plate reader assay, response to TC-5619; assay type: cell-based; settings: LX293T YFP reporter cells
Description: as §2, §3, §4, §5, §6

[9] = YFP quench plate reader assay, response to APN-1125; assay type: cell-based; settings: LX293T YFP reporter cells
Description: as §2, §3, §4, §5, §6

[10] = YFP quench plate reader assay, response to AZD-0328; assay type: cell-based; settings: LX293T YFP reporter cells
Description: as §2, §3, §4, §5, §6

[11] = YFP quench plate reader assay, response to TC-6987; assay type: cell-based; settings: LX293T YFP reporter cells
Description: as §2, §3, §4, §5, §6

[12] = YFP quench plate reader assay, response to acetylcholine; assay type: cell-based; settings: LX293T YFP reporter cells
Description: as §2, §3, §4, §5, §6

[13] = YFP quench plate reader assay, response to RG3487; assay type: cell-based; settings: LX293T YFP reporter cells
Description: as §2, §3, §4, §5, §6

[14] = High throughput electrophysiology in HEK293T cells, RG-3487; assay type: cell-based
Description: To confirm the EC50s determined by plate reader as well as develop a better understanding of maximum current flow, the engineered receptors were subjected to high throughput electrophysiology system, as described below. For HEK293T studies, cDNAs encoding ion channels were cloned into pcDNA3.1 using standard recombination techniques. HEK293T cells from Clontech (Lenti-X™ 293T Cell Line) were cultured in DMEM supplemented with 10% FBS and 1% Pen/Strep to 40-50% confluence using standard cell culture protocols, transfected with ion channel plasmids at a concentration of 18 μg per 15 cm dish using Fugene 6, and grown for an additional 24 hours. Cells were then assayed on a electrophysiological system (IonFluxHT and/or Mercury, Fluxion Biosciences) in which dose-response relationships may be assessed through a microfluidics-based platform for establishing whole cell configurations. […] Data were then analyzed off-line using custom Python scripts to convert data to .csv format, re-plot traces, and apply QC measurements to reject unstable recordings (i.e. thresholding based on access resistance and/or standard deviation in baseline, as well as artifact rejection). Peak currents were then calculated and population data were fit using a 4-parameter logistic equation as described by the Hill Equation. […]

[15] = High throughput electrophysiology in HEK293T cells, AZD-0328; assay type: cell-based
Description: To confirm the EC50s determined by plate reader as well as develop a better understanding of maximum current flow, the engineered receptors were subjected to high throughput electrophysiology system, as described below. For HEK293T studies, cDNAs encoding ion channels were cloned into pcDNA3.1 using standard recombination techniques. HEK293T cells from Clontech (Lenti-X™ 293T Cell Line) were cultured in DMEM supplemented with 10% FBS and 1% Pen/Strep to 40-50% confluence using standard cell culture protocols, transfected with ion channel plasmids at a concentration of 18 μg per 15 cm dish using Fugene 6, and grown for an additional 24 hours. Cells were then assayed on a electrophysiological system (IonFluxHT and/or Mercury, Fluxion Biosciences) in which dose-response relationships may be assessed through a microfluidics-based platform for establishing whole cell configurations. Ensemble plates were primed with extracellular buffer (140 mM NaCl, 5 mM KCl, 2 mM CaCl2), 1 mM MgCl2, 10 mM HEPES, and 10 mM glucose, pH 7.2 with NaOH, mOsm 310), intracellular buffer (145 mM CsCl, 2 mM CaCl2, 2 mM MgCl2, 10 mM HEPES, and 10 mM EGTA, pH 7.2 with CsOH, mOsm 305), as adapted from Lynagh and Lynch, and test compounds (stocks prepared fresh) diluted in extracellular buffer. Cells were then released from the plate with Accutase, centrifuged, resuspended in extracellular buffer, and loaded into Ensemble plates. Cells were then subjected to a standard protocol for priming, trapping, breaking, and establishing whole cell configuration, with cells held at −60 mV throughout the recording. After recording baseline, progressive doses of test compounds were applied using the IonFlux software to assess dose response relationships. Data were then analyzed off-line using custom Python scripts to convert data to .csv format, re-plot traces, and apply QC measurements to reject unstable recordings (i.e. thresholding based on access resistance and/or standard deviation in baseline, as well as artifact rejection). Peak currents were then calculated and population data were fit using a 4-parameter logistic equation as described by the Hill Equation. Currents were measured on an automated patch clamp system (Fluxion Biosciences) following 1 second addition of drug and the EC50 values calculated are tabulated below in Table 13.

B1: SEQ ID NO: 33: parental CHRNA7/GLRA1 chimera: α7-nAChR ligand binding domain with GlyRα1 Cys-loop, fused to GlyRα1 ion pore domain (protein)
chain: MRCSPGGVWLALAASLLHVSLQGEFQRKLYKELVKNYNPLERPVANDSQPLTVYFSLSLLQIMDVDEKNQVLTTNIWLQMSWTDHYLQWNVSEYPGVKTVRFPDGQIWKPDILLYNSADERFDATFHTNVLVNSSGHCQYLPPGIFKSSCPMDLKNFPMDVQTCKLKFGSWSYGGWSLDLQMQEADISGYIPNGEWDLVGIPGKRSERFYECCKEPYPDVTFTVTMRRRMGYYLIQMYIPSLLIVILSWISFWINMDAAPARVGLGITTVLTMTTQSSGSRASLPKVSYVKAIDIWMAVCLLFVFSALLEYAAVNFVSRQHKELLRFRRKRRHHKSPMLNLFQEDEAGEGRFNFSAYGMGPACLQAKDGISVKGANNSNTTNPPPAPSKSPEEMRKLFIQRAKKIDKISRIGFPMAFLIFNMFYWIIYKIVRREDVHNQ
modifications: synthetic sequence of chimeric LGIC
fold more sensitive to AZD-0328 than wild type [1]: approximately 3 fold
sensitivity to TC-6987 compared to wild type α7-nAChR [2]: approximately as sensitive
type of agonist activity of TC-6987 on the receptor ([2]; similar to wild type): partial agonist activity
sensitivity to ABT-126 compared to wild type α7-nAChR [3]: approximately as sensitive
fold more sensitive to Facinicline/RG3487 than wild type [4]: ~10 fold
fold less sensitive to nicotine than wild type [5]: ~2 fold
sensitivity to acetylcholine compared to wild type α7-nAChR [6]: approximately as sensitive

B2: L131D, S172D in SEQ ID NO: 33: engineered chimeric α7-nAChR/GlyRα1 LGIC receptor: SEQ ID NO: 33 with substitutions L131D and S172D (protein)
chain: B1 chain with L131D, S172D
modifications: synthetic sequence of chimeric LGIC
percent quench of YFP fluorescence, 50 nM abt ([7]; 50 nM ABT-126): −3.19%
percent quench of YFP fluorescence, 100 nM abt ([7]; 100 nM ABT-126): 7.58%
percent quench of YFP fluorescence, 300 nM abt ([7]; 300 nM ABT-126): −1.65%
percent quench of YFP fluorescence, 1 uM abt ([7]; 1 uM ABT-126): 31.29%
percent quench of YFP fluorescence, 1 nM brd ([8]; 1 nM TC-5619): −1.24%
percent quench of YFP fluorescence, 3 nM brd ([8]; 3 nM TC-5619): 0.25%
percent quench of YFP fluorescence, 10 nM brd ([8]; 10 nM TC-5619): −2.57%
percent quench of YFP fluorescence, 30 nM brd ([8]; 30 nM TC-5619): 0.78%
percent quench of YFP fluorescence, 100 nM brd ([8]; 100 nM TC-5619): 4.51%
percent quench of YFP fluorescence, 300 nM brd ([8]; 300 nM TC-5619): 30.97%
percent quench of YFP fluorescence, 1 uM brd ([8]; 1 uM TC-5619): 44.41%
percent quench of YFP fluorescence, 100 nM apn ([9]; 100 nM APN-1125): 71.72%
percent quench of YFP fluorescence, 1 uM apn ([9]; 1 uM APN-1125): 77.26%
percent quench of YFP fluorescence, 30 uM apn ([9]; 30 uM APN-1125): 77.5%
percent quench of YFP fluorescence, 100 nM azd ([10]; 100 nM AZD-0328): 51.44%
percent quench of YFP fluorescence, 300 nM azd ([10]; 300 nM AZD-0328): 77.12%
percent quench of YFP fluorescence, 30 uM azd ([10]; 30 uM AZD-0328): 79.26%
percent quench of YFP fluorescence, 1 uM tc6 ([11]; 1 uM TC-6987): −18.24%
percent quench of YFP fluorescence, 10 uM tc6 ([11]; 10 uM TC-6987): −23.06%
percent quench of YFP fluorescence, 500 uM tc6 ([11]; 500 uM TC-6987): −19.3%
percent quench of YFP fluorescence, 10 uM ach ([12]; 10 uM acetylcholine): −12.91%
percent quench of YFP fluorescence, 100 uM ach ([12]; 100 uM acetylcholine): −20.88%
percent quench of YFP fluorescence, 1 mM ach ([12]; 1 mM acetylcholine): 79.85%
percent quench of YFP fluorescence, 3 mM ach ([12]; 3 mM acetylcholine): 79.98%
percent quench of YFP fluorescence, 30 nM fac ([13]; 30 nM RG3487): 24.15%
percent quench of YFP fluorescence, 300 nM fac ([13]; 300 nM RG3487): 80.17%
percent quench of YFP fluorescence, 10 uM fac ([13]; 10 uM RG3487): 81.34%
percent quench of YFP fluorescence, 30 uM fac ([13]; 30 uM RG3487): 79.9%
fold increased potency to RG-3487 compared to wild type receptor [14]: at least 10 fold
fold increased potency towards AZD-0328 compared to wild type receptor [15]: at least 10 fold
